# From the supplement of paper PMC11908140
# B1: library; numbered along this chain (parent)
# chain: MRKPRAAVGSGHRKQAASQEGRQKHAKNNSQAKPSACDGLARQPEEVVLQASVSSYHLFRDVAEVTAFRGSLLSWYDQEKRDLPWRRRAEDEMDLDRRAYAVWVSEVMLQQTQVATVINYYTGWMQKWPTLQDLASASLEEVNQLWAGLGYYSRGRRLQEGARKVVEELGGHMPRTAETLQQLLPGVGRYTAGAIASIAFGQATGVVDGNVARVLCRVRAIGADPSSTLVSQQLWGLAQQLVDPARPGDFNQAAMELGATVCTPQRPLCSQCPVESLCRARQRVEQEQLLASGSLSGSPDVEECAPNTGQCHLCLPPSEPWDQTLGVVNFPRKASRKPPREESSATCVLEQPGALGAQILLVQRPNSGLLAGLWEFPSVTWEPSEQLQRKALLQELQRWAGPLPATHLRHLGEVVHTFSHIKLTYQVYGLALEGQTPVTTVPPGARWLTQEEFHTAAVSTAMKKVFRVYQGQQPGTCMGSKRSQVSSPCSRKKPRMGQQVLDNFFRSHISTDAHSLNSAAQ
# Variants of: B1
# Assay: 8OG:A repair function score (normalized; synonymous = 0, nonsense = -1) (normalized log-likelihood score); higher = more repair activity (WT-like)
# Conditions: with 8OG:A DNA repair reporter (GFP) in HEK-293 MUTYH KO cells
# Summary of the method: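 GFP+ (repair) and GFP− bins of viable mCherry+ cells were collected at 72 h from MUTYH knockout HEK-293 cells bearing lentiviral MUTYH cDNA NNN codon-scan libraries in 10 pg/ml doxycycline, co-transfected with an 8OG:A GFP repair reporter and mCherry. Tile amplicons were sequenced, and per-tile Rosace fitness scores were normalized to a repair function score anchored on synonymous and nonsense distributions. Synonymous medians were set to 0 and nonsense to -1, with variants under 300 counts per million at the start removed.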
# 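Also: cells sorted at 72 h after reporter transfection.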
row,Variant,8OG:A repair function score
1,MRKPRAAVGSGHRKQAASQEGRQKHAKNNSQAKPSACDGLARQPEEVVLQASVSSYHLFRDVAEVTAFRGSLLSWYDQEKRDLPWRRRAEDEMDLDRRAYAVWVSEVMLQQTQVATVINYYTGWMQKWPTLQDLASASLEEVNQLWAGLGYYSRGRRLQEGARKVVEELGGHMPRTAETLQQLLPGVGRYTAGAIASIAFGQATGVVDGNVARVLCRVRAIGADPSSTLVSQQLWGLAQQLVDPARPGDFNQAAMELGATVCTPQRPLCSQCPVESLCRARQRVEQEQLLASGSLSGSPDVEECAPNTGQCHLCLPPSEPWDQTLGVVNFPRKASRKPPREESSITCVLEQPGALGAQILLVQRPNSGLLAGLWEFPSVTWEPSEQLQRKALLQELQRWAGPLPATHLRHLGEVVHTFSHIKLTYQVYGLALEGQTPVTTVPPGARWLTQEEFHTAAVSTAMKKVFRVYQGQQPGTCMGSKRSQVSSPCSRKKPRMGQQVLDNFFRSHISTDAHSLNSAAQ [A345I],0.0369
2,MRKPRAAVGSGHRKQAASQEGRQKHAKNNSQAKPSACDGLARQPEEVVLQASVSSYHLFRDVAEVTAFRGSLLSWYDQEKRDLPWRRRAEDEMDLDRRAYAVWVSEVMLQQTQVATVINYYTGWMQKWPTLQDLASASLEEVNQLWAGLGYYSRGRRLQEGARKVVEELGGHMPRTAETLQQLLPGVGRYTAGAIASIAFGQATGVVDGNVARVLCRVRAIGADPSSTLVSQQLWGLAQQLVDPARPGDFNQAAMELGATVCTPQRPLCSQCPVESLCRARQRVEQEQLLASGSLSGSPDVEECAPNTGQCHLCLPPSEPWDQTLGVVNFPRKASRKPPREESSGTCVLEQPGALGAQILLVQRPNSGLLAGLWEFPSVTWEPSEQLQRKALLQELQRWAGPLPATHLRHLGEVVHTFSHIKLTYQVYGLALEGQTPVTTVPPGARWLTQEEFHTAAVSTAMKKVFRVYQGQQPGTCMGSKRSQVSSPCSRKKPRMGQQVLDNFFRSHISTDAHSLNSAAQ [A345G],-0.243
3,MRKPRAAVGSGHRKQAASQEGRQKHAKNNSQAKPSACDGLARQPEEVVLQASVSSYHLFRDVAEVTAFRGSLLSWYDQEKRDLPWRRRAEDEMDLDRRAYAVWVSEVMLQQTQVATVINYYTGWMQKWPTLQDLASASLEEVNQLWAGLGYYSRGRRLQEGARKVVEELGGHMPRTAETLQQLLPGVGRYTAGAIASIAFGQATGVVDGNVARVLCRVRAIGADPSSTLVSQQLWGLAQQLVDPARPGDFNQAAMELGATVCTPQRPLCSQCPVESLCRARQRVEQEQLLASGSLSGSPDVEECAPNTGQCHLCLPPSEPWDQTLGVVNFPRKASRKPPREESSHTCVLEQPGALGAQILLVQRPNSGLLAGLWEFPSVTWEPSEQLQRKALLQELQRWAGPLPATHLRHLGEVVHTFSHIKLTYQVYGLALEGQTPVTTVPPGARWLTQEEFHTAAVSTAMKKVFRVYQGQQPGTCMGSKRSQVSSPCSRKKPRMGQQVLDNFFRSHISTDAHSLNSAAQ [A345H],-0.107
4,MRKPRAAVGSGHRKQAASQEGRQKHAKNNSQAKPSACDGLARQPEEVVLQASVSSYHLFRDVAEVTAFRGSLLSWYDQEKRDLPWRRRAEDEMDLDRRAYAVWVSEVMLQQTQVATVINYYTGWMQKWPTLQDLASASLEEVNQLWAGLGYYSRGRRLQEGARKVVEELGGHMPRTAETLQQLLPGVGRYTAGAIASIAFGQATGVVDGNVARVLCRVRAIGADPSSTLVSQQLWGLAQQLVDPARPGDFNQAAMELGATVCTPQRPLCSQCPVESLCRARQRVEQEQLLASGSLSGSPDVEECAPNTGQCHLCLPPSEPWDQTLGVVNFPRKASRKPPREESSKTCVLEQPGALGAQILLVQRPNSGLLAGLWEFPSVTWEPSEQLQRKALLQELQRWAGPLPATHLRHLGEVVHTFSHIKLTYQVYGLALEGQTPVTTVPPGARWLTQEEFHTAAVSTAMKKVFRVYQGQQPGTCMGSKRSQVSSPCSRKKPRMGQQVLDNFFRSHISTDAHSLNSAAQ [A345K],-0.499
5,MRKPRAAVGSGHRKQAASQEGRQKHAKNNSQAKPSACDGLARQPEEVVLQASVSSYHLFRDVAEVTAFRGSLLSWYDQEKRDLPWRRRAEDEMDLDRRAYAVWVSEVMLQQTQVATVINYYTGWMQKWPTLQDLASASLEEVNQLWAGLGYYSRGRRLQEGARKVVEELGGHMPRTAETLQQLLPGVGRYTAGAIASIAFGQATGVVDGNVARVLCRVRAIGADPSSTLVSQQLWGLAQQLVDPARPGDFNQAAMELGATVCTPQRPLCSQCPVESLCRARQRVEQEQLLASGSLSGSPDVEECAPNTGQCHLCLPPSEPWDQTLGVVNFPRKASRKPPREESSFTCVLEQPGALGAQILLVQRPNSGLLAGLWEFPSVTWEPSEQLQRKALLQELQRWAGPLPATHLRHLGEVVHTFSHIKLTYQVYGLALEGQTPVTTVPPGARWLTQEEFHTAAVSTAMKKVFRVYQGQQPGTCMGSKRSQVSSPCSRKKPRMGQQVLDNFFRSHISTDAHSLNSAAQ [A345F],-0.165
6,MRKPRAAVGSGHRKQAASQEGRQKHAKNNSQAKPSACDGLARQPEEVVLQASVSSYHLFRDVAEVTAFRGSLLSWYDQEKRDLPWRRRAEDEMDLDRRAYAVWVSEVMLQQTQVATVINYYTGWMQKWPTLQDLASASLEEVNQLWAGLGYYSRGRRLQEGARKVVEELGGHMPRTAETLQQLLPGVGRYTAGAIASIAFGQATGVVDGNVARVLCRVRAIGADPSSTLVSQQLWGLAQQLVDPARPGDFNQAAMELGATVCTPQRPLCSQCPVESLCRARQRVEQEQLLASGSLSGSPDVEECAPNTGQCHLCLPPSEPWDQTLGVVNFPRKASRKPPREESSETCVLEQPGALGAQILLVQRPNSGLLAGLWEFPSVTWEPSEQLQRKALLQELQRWAGPLPATHLRHLGEVVHTFSHIKLTYQVYGLALEGQTPVTTVPPGARWLTQEEFHTAAVSTAMKKVFRVYQGQQPGTCMGSKRSQVSSPCSRKKPRMGQQVLDNFFRSHISTDAHSLNSAAQ [A345E],-0.567
7,MRKPRAAVGSGHRKQAASQEGRQKHAKNNSQAKPSACDGLARQPEEVVLQASVSSYHLFRDVAEVTAFRGSLLSWYDQEKRDLPWRRRAEDEMDLDRRAYAVWVSEVMLQQTQVATVINYYTGWMQKWPTLQDLASASLEEVNQLWAGLGYYSRGRRLQEGARKVVEELGGHMPRTAETLQQLLPGVGRYTAGAIASIAFGQATGVVDGNVARVLCRVRAIGADPSSTLVSQQLWGLAQQLVDPARPGDFNQAAMELGATVCTPQRPLCSQCPVESLCRARQRVEQEQLLASGSLSGSPDVEECAPNTGQCHLCLPPSEPWDQTLGVVNFPRKASRKPPREESSLTCVLEQPGALGAQILLVQRPNSGLLAGLWEFPSVTWEPSEQLQRKALLQELQRWAGPLPATHLRHLGEVVHTFSHIKLTYQVYGLALEGQTPVTTVPPGARWLTQEEFHTAAVSTAMKKVFRVYQGQQPGTCMGSKRSQVSSPCSRKKPRMGQQVLDNFFRSHISTDAHSLNSAAQ [A345L],-0.04
8,MRKPRAAVGSGHRKQAASQEGRQKHAKNNSQAKPSACDGLARQPEEVVLQASVSSYHLFRDVAEVTAFRGSLLSWYDQEKRDLPWRRRAEDEMDLDRRAYAVWVSEVMLQQTQVATVINYYTGWMQKWPTLQDLASASLEEVNQLWAGLGYYSRGRRLQEGARKVVEELGGHMPRTAETLQQLLPGVGRYTAGAIASIAFGQATGVVDGNVARVLCRVRAIGADPSSTLVSQQLWGLAQQLVDPARPGDFNQAAMELGATVCTPQRPLCSQCPVESLCRARQRVEQEQLLASGSLSGSPDVEECAPNTGQCHLCLPPSEPWDQTLGVVNFPRKASRKPPREESSDTCVLEQPGALGAQILLVQRPNSGLLAGLWEFPSVTWEPSEQLQRKALLQELQRWAGPLPATHLRHLGEVVHTFSHIKLTYQVYGLALEGQTPVTTVPPGARWLTQEEFHTAAVSTAMKKVFRVYQGQQPGTCMGSKRSQVSSPCSRKKPRMGQQVLDNFFRSHISTDAHSLNSAAQ [A345D],-0.542
9,MRKPRAAVGSGHRKQAASQEGRQKHAKNNSQAKPSACDGLARQPEEVVLQASVSSYHLFRDVAEVTAFRGSLLSWYDQEKRDLPWRRRAEDEMDLDRRAYAVWVSEVMLQQTQVATVINYYTGWMQKWPTLQDLASASLEEVNQLWAGLGYYSRGRRLQEGARKVVEELGGHMPRTAETLQQLLPGVGRYTAGAIASIAFGQATGVVDGNVARVLCRVRAIGADPSSTLVSQQLWGLAQQLVDPARPGDFNQAAMELGATVCTPQRPLCSQCPVESLCRARQRVEQEQLLASGSLSGSPDVEECAPNTGQCHLCLPPSEPWDQTLGVVNFPRKASRKPPREESSCTCVLEQPGALGAQILLVQRPNSGLLAGLWEFPSVTWEPSEQLQRKALLQELQRWAGPLPATHLRHLGEVVHTFSHIKLTYQVYGLALEGQTPVTTVPPGARWLTQEEFHTAAVSTAMKKVFRVYQGQQPGTCMGSKRSQVSSPCSRKKPRMGQQVLDNFFRSHISTDAHSLNSAAQ [A345C],0.0391
10,MRKPRAAVGSGHRKQAASQEGRQKHAKNNSQAKPSACDGLARQPEEVVLQASVSSYHLFRDVAEVTAFRGSLLSWYDQEKRDLPWRRRAEDEMDLDRRAYAVWVSEVMLQQTQVATVINYYTGWMQKWPTLQDLASASLEEVNQLWAGLGYYSRGRRLQEGARKVVEELGGHMPRTAETLQQLLPGVGRYTAGAIASIAFGQATGVVDGNVARVLCRVRAIGADPSSTLVSQQLWGLAQQLVDPARPGDFNQAAMELGATVCTPQRPLCSQCPVESLCRARQRVEQEQLLASGSLSGSPDVEECAPNTGQCHLCLPPSEPWDQTLGVVNFPRKASRKPPREESWATCVLEQPGALGAQILLVQRPNSGLLAGLWEFPSVTWEPSEQLQRKALLQELQRWAGPLPATHLRHLGEVVHTFSHIKLTYQVYGLALEGQTPVTTVPPGARWLTQEEFHTAAVSTAMKKVFRVYQGQQPGTCMGSKRSQVSSPCSRKKPRMGQQVLDNFFRSHISTDAHSLNSAAQ [S344W],-0.0913
11,MRKPRAAVGSGHRKQAASQEGRQKHAKNNSQAKPSACDGLARQPEEVVLQASVSSYHLFRDVAEVTAFRGSLLSWYDQEKRDLPWRRRAEDEMDLDRRAYAVWVSEVMLQQTQVATVINYYTGWMQKWPTLQDLASASLEEVNQLWAGLGYYSRGRRLQEGARKVVEELGGHMPRTAETLQQLLPGVGRYTAGAIASIAFGQATGVVDGNVARVLCRVRAIGADPSSTLVSQQLWGLAQQLVDPARPGDFNQAAMELGATVCTPQRPLCSQCPVESLCRARQRVEQEQLLASGSLSGSPDVEECAPNTGQCHLCLPPSEPWDQTLGVVNFPRKASRKPPREESYATCVLEQPGALGAQILLVQRPNSGLLAGLWEFPSVTWEPSEQLQRKALLQELQRWAGPLPATHLRHLGEVVHTFSHIKLTYQVYGLALEGQTPVTTVPPGARWLTQEEFHTAAVSTAMKKVFRVYQGQQPGTCMGSKRSQVSSPCSRKKPRMGQQVLDNFFRSHISTDAHSLNSAAQ [S344Y],0.0271
12,MRKPRAAVGSGHRKQAASQEGRQKHAKNNSQAKPSACDGLARQPEEVVLQASVSSYHLFRDVAEVTAFRGSLLSWYDQEKRDLPWRRRAEDEMDLDRRAYAVWVSEVMLQQTQVATVINYYTGWMQKWPTLQDLASASLEEVNQLWAGLGYYSRGRRLQEGARKVVEELGGHMPRTAETLQQLLPGVGRYTAGAIASIAFGQATGVVDGNVARVLCRVRAIGADPSSTLVSQQLWGLAQQLVDPARPGDFNQAAMELGATVCTPQRPLCSQCPVESLCRARQRVEQEQLLASGSLSGSPDVEECAPNTGQCHLCLPPSEPWDQTLGVVNFPRKASRKPPREESVATCVLEQPGALGAQILLVQRPNSGLLAGLWEFPSVTWEPSEQLQRKALLQELQRWAGPLPATHLRHLGEVVHTFSHIKLTYQVYGLALEGQTPVTTVPPGARWLTQEEFHTAAVSTAMKKVFRVYQGQQPGTCMGSKRSQVSSPCSRKKPRMGQQVLDNFFRSHISTDAHSLNSAAQ [S344V],-0.00413
